Data reported in patent US20240209100A1 (DIAGONAL THERAPEUTICS, published 2024).

What was measured:
[1] = molecular target: T1, IL-18 receptor (IL-18Rα/IL-18Rβ) overexpressed on HEK-Blue IL-18 cells (Homo sapiens (Human), UniProt Q13478 19-541; O95256 20-599); assay: cell-based or functional assay
T1 sequence 1: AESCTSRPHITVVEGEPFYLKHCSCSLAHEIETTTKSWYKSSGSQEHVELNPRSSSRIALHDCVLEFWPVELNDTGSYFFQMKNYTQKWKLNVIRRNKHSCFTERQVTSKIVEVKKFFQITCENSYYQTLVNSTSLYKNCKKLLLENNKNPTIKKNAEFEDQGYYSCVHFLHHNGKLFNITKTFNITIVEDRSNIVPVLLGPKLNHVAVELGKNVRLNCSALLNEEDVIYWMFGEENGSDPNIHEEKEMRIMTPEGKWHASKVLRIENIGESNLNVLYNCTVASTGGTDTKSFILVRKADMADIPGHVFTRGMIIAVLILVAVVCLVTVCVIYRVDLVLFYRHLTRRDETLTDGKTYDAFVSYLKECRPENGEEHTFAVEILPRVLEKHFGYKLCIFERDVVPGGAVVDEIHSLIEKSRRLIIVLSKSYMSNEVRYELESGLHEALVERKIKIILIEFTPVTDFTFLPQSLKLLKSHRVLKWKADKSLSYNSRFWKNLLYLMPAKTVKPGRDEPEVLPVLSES
T1 sequence 2: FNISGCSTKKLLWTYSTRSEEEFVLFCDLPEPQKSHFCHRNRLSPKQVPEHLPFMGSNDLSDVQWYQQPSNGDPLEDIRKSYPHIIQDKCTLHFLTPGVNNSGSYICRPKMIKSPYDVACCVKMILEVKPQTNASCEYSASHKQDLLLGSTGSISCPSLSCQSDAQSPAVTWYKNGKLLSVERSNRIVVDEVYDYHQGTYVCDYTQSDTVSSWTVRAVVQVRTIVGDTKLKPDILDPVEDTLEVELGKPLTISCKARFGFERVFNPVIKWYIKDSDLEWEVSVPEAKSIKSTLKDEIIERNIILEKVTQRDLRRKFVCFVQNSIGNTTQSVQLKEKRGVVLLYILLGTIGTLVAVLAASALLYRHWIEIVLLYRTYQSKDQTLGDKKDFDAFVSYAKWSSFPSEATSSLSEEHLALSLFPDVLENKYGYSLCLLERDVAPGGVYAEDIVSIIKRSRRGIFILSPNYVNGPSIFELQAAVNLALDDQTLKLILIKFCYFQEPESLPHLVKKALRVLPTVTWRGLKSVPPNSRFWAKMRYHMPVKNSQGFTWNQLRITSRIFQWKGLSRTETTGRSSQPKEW

[2] = molecular target: T1, IL-18 receptor (IL-18Rα/IL-18Rβ) …; assay: cell-based or functional assay; remark: listed apart in the source

B1: DGL207 (bispecific antibody)
heavy 1: QVQLVESGGGLVQAGGSLRLSCAASGRTFSKHAMGWFRQAPGKEREFVAAIDWSGGSTYYADSVKGRFTISRDNAKNTVYLQMDSLKPEDTAVYYCAADSYTDYAQLWLPELESEYDYWGQGTLVTVSSCPPCPAPEAAGAPSVFLFPPKPKDTLMISRTPEVTCVVVDVSHEDPEVKFNWYVDGVEVHNAKTKPREEQYNSTYRVVSVLTVLHQDWLNGKEYKCKVSNKALPAPIEKTISKAKGQPREPQVCTLPPSRDELTKNQVSLSCAVKGFYPSDIAVEWESNGQPENNYKTTPPVLDSDGSFFLVSKLTVDKSRWQQGNVFSCSVMHEALHNHYTQKSLSLSPGWSHPQFEK
heavy 2: QLQLVESGGGLVQAGGSLRLSCAASRSITFSHNVMGWYRQAPGKQRELVASIGSGGSTNYVDSVKGRATISRDNAKKTVYLQMNSLKPEDTAVYYCGVVVGVYRGSLGQGTLVTVSSCPPCPAPEAAGAPSVFLFPPKPKDTLMISRTPEVTCVVVDVSHEDPEVKFNWYVDGVEVHNAKTKPREEQYNSTYRVVSVLTVLHQDWLNGKEYKCKVSNKALPAPIEKTISKAKGQPREPQVYTLPPCRDELTKNQVSLWCLVKGFYPSDIAVEWESNGQPENNYKTTPPVLDSDGSFFLYSKLTVDKSRWQQGNVFSCSVMHEALHNHYTQKSLSLSPGEPEA
- EC50 (read off the curve), HEK Blue IL-18 SEAP reporter [1]: ~0.5 nM
- HEK-Blue IL-18: Abs 405 at 100 nM [2]: 2.6 Abs
- HEK-Blue IL-18: Fold over Background [2]: 11.4 fold
